The target of test [1] is canonical S. cerevisiae nucleosome (two H2A–H2B dimers) on Widom 601 DNA (S. cerevisiae) (UniProt P04911). Briefly: single-molecule fluorescence colocalisation; surface-immobilised 113N2.AF488 nucleosome; 5 nM SWR1(647N) with 1 mM ATP injected; 25 mM Tris-HCl pH 7.8, 100 mM KCl, 4% glycerol, 1 mM EDTA, 2 mM MgCl2, 0.2 mg/ml BSA; 22 °C; time to bind and bound lifetime from tMAVEN.

The target of test [2] is heterotypic S. cerevisiae nucleosome (one Htz1–H2B dimer and one H2A–H2B dimer) (S. cerevisiae) (UniProt P04911). Briefly: FRET or BRET; single-molecule FRET (prism-TIRF); biotinylated nucleosome or hexasome with Cy3 on the 2-bp DNA overhang immobilised via neutravidin; 10 nM SWR1(647N) injected; 25 mM Tris-HCl pH 7.8, 100 mM KCl, 4% glycerol, 1 mM EDTA, 2 mM MgCl2, 0.2 mg/ml BSA; room temperature; 100-ms frames. A general note: BRET reads energy transfer from a luciferase to a nearby fluorophore.

In test [1], “SWR1(Atto647N–Arp6) (from UniProt Q05471 1-1514; Q12509 1-438; Q03433 1-280; Q03388 1-795; Q03940 1-463; Q12464 1-471; P38326 1-303) (complex)” returned a lifetime of the bound complex (stably bound species) of 19 min and a time to bind of 6.58 min. In test [2], this substance had a dwell time on the Htz1–H2B face (single fast exponential decay) of 0.63 s.
